How the values were obtained:
[1] = biological target: T1, recombinant hIgG1 Fc-tagged cynomolgus monkey B7H4 (Creative BioMart, cat. no. VTCN1-1517R) (cynomolgus monkey, UniProt Q7Z7D3 25-259 (human entry)); test: BLI (Octet HTX); Fc-tagged cynomolgus B7H4 coupled to AR2G sensor, bispecific antibody in solution (monovalent B7H4 binding); 2nd experiment (average of n = 3)
T1 construct: Bought protein; also called cynomolgus monkey B7H4 extracellular domain
T1 sequence: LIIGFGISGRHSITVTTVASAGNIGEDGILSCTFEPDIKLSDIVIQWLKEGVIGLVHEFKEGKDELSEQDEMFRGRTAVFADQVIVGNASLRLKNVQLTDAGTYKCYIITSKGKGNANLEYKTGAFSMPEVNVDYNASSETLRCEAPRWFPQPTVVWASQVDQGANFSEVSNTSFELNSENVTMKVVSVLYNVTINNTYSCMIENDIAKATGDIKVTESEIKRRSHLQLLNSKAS
Method: In addition, the affinity of for cynomolgus monkey B7H4 was determined by BLI. […] Amine Reactive 2nd Generation (AR2G) biosensors (FortéBio, cat. no. 18-5092) were activated by reaction with 20 mM EDC (N-(3-Dimethylaminopropyl)-N′-ethylcarbodiimide hydrochloride) (FortéBio, cat. no. 18-1033) and 10 mM s-NHS (N-hydroxysulfosuccinimide sodium salt) (FortéBio, cat. no. 18-1067) for 300 s. The activated sensors were loaded with 10 μg/mL recombinant hIgG1 Fc-tagged cynomolgus monkey B7H4 (Creative BioMart, cat. no. VTCN1-1517R) in 10 mM Sodium Acetate pH 4.0 (FortéBio, cat. no. 18-1068) for 600 s and quenched with 1 M ethanolamine pH 8.5 (FortéBio, cat. no. 18-1071) for 300 s. […] A molecular mass of 150 kDa of the antibodies was used for calculations. For each antibody a reference sensor was used, which was incubated with Sample Diluent instead of antibody.
Data were acquired using Data Acquisition Software v9.0.0.49d (FortéBio) and analyzed with Data Analysis Software v9.0.0.12 (FortéBio). Data traces were corrected per antibody by subtraction of the reference sensor. The Y-axis was aligned to the last 10 s of the baseline, Interstep Correction alignment to dissociation and Savitzky-Golay filtering were applied. Data traces with a response<0.05 nm were excluded from analysis. The data was fitted with the 1:1 Global Full fit model using a window of interest for the association and dissociation times set at 100 s and 200 s respectively.
The experiment was performed as described above, with some small exceptions.

[2] = biological target: T2, B7H3-IgV/B7H4-IgC; test: flow cytometry, HEK cells transiently transfected with B7H3-IgV/B7H4-IgC, PE anti-human IgG F(ab')2 [panel B7H3-IgV/B7H4-IgC]
T2 construct: also called chimeric molecule with the IgV domain of B7H3 and the IgC domain of B7H4
T2 full-length chimeric protein on cells: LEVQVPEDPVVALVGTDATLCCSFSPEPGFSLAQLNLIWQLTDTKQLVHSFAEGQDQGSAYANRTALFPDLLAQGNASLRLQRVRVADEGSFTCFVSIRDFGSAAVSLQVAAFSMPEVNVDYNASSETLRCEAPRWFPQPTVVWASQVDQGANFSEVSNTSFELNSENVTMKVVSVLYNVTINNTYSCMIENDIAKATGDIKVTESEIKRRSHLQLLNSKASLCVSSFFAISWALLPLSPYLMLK
Method: After washing twice in FACS buffer, cells were incubated with secondary antibody at 4° C. for 30 min. […] Next, cells were washed twice in FACS buffer, re-suspended in 20 μL FACS buffer and analyzed on an iQue Screener (Intellicyt Corporation, USA).
Further experiments were conducted to study the B7H4 domain specificity of the B7H4 antibodies in more detail, by analysis of full dose-response curves.

[3] = biological target: T3, mouse (Mus musculus) B7H4, full length, on HEK-293F cells (mouse, UniProt Q7TSP5 25-257); test: flow cytometry, HEK-293F cells transfected with mouse B7H4 [panel Mouse B7H4]
T3 construct: Uniprot Q7TSP5; also called mouse B7H4
T3 sequence: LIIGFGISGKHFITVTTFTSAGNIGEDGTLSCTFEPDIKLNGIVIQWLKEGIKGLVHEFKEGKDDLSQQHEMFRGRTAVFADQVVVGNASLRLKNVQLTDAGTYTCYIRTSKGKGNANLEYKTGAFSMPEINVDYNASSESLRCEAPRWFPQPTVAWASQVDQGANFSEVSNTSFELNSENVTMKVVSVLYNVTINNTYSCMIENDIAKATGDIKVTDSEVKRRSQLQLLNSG
Method: (§1) Cells (3×10⁴ cells/well) were incubated in polystyrene 96-well round-bottom plates (Greiner bio-one, cat. no. 650180) with serial dilutions of antibodies (ranging from 0.000458 to 30 μg/mL in 4-fold dilution steps) in 100 μL PBS/0.1% BSA/0.02% azide (staining buffer) at 4° C. for 30 min. Experiments were performed in technical duplicate. After washing twice in staining buffer, cells were incubated in 50 μL secondary antibody at 4° C. for 30 min. As a secondary antibody, R-Phycoerythrin (PE)-conjugated goat-anti-human IgG F(ab′)₂ (1:500 in FACS buffer; Jackson ImmunoResearch Laboratories, Inc., West Grove, PA, cat. no. 109-116-098), was used. Cells were washed twice in staining buffer, re-suspended in 30 μL FACS buffer containing Topro-3 (1:10,000 dilution) and analyzed on an iQue Screener (Intellicyt Corporation, USA). Binding curves were analyzed using non-linear regression (sigmoidal dose-response with variable slope) using GraphPad Prism V7.02 software (GraphPad Software, San Diego, CA, USA).

[4] = biological target: T4, pig (Sus scrofa) B7H4, full length, on HEK-293F cells (pig, UniProt Q7Z7D3 26-282 (human entry)); test: flow cytometry, HEK-293F cells transiently transfected with pig B7H4, PE anti-human IgG F(ab')2 [panel Pig B7H4]
T4 construct: Uniprot F1SAY4; also called pig B7H4
T4 chain: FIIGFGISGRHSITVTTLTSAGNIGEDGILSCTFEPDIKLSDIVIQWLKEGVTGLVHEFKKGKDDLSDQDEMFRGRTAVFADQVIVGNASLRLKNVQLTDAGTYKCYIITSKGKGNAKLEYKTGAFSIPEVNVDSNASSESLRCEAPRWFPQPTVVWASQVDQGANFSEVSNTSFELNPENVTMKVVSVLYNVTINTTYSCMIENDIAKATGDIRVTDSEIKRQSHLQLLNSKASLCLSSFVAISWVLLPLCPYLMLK
Method: as §1

B1: bsIgG1-huCD3-H101G-FEALxB7H4-C1-N52S-FEAR (bispecific antibody)
heavy 1: not shown
light 1: not shown
heavy 2: QVQLQQWGAGLLKPSETLSLTCAVYGGSFSGYYWSWIRQPPGKGLEWIGEISHSGSTNYNPSLKSRVTISIDTSKNQFSLKLTSVTAADTAVFYCARGLFNWNFDSWGQGTLVTVSSASTKGPSVFPLAPSSKSTSGGTAALGCLVKDYFPEPVTVSWNSGALTSGVHTFPAVLQSSGLYSLSSVVTVPSSSLGTQTYICNVNHKPSNTKVDKRVEPKSCDKTHTCPPCPAPEFEGGPSVFLFPPKPKDTLMISRTPEVTCVVVAVSHEDPEVKFNWYVDGVEVHNAKTKPREEQYNSTYRVVSVLTVLHQDWLNGKEYKCKVSNKALPAPIEKTISKAKGQPREPQVYTLPPSREEMTKNQVSLTCLVKGFYPSDIAVEWESNGQPENNYKTTPPVLDSDGSFFLYSRLTVDKSRWQQGNVFSCSVMHEALHNHYTQKSLSLSPGK
light 2: DIQMTQSPSSLSASVGDRVTITCRASQGIRNDLGWYQQKPGKAPKRLIYGASSLQSGVPSRFSGSGSGTEFTLTISSLQPEDFATYYCLQHNSYPRTFGQGTTVEIKRTVAAPSVFIFPPSDEQLKSGTASVVCLLNNFYPREAKVQWKVDNALQSGNSQESVTEQDSKDSTYSLSSTLTLSKADYEKHKVYACEVTHQGLSSPVTKSFNRGEC
notes: also called bslgG1-huCD3-H101G-FEALxB7H4-C1-N52S-FEAR; BslgG1-huCD3-H101G-FEALxB7H4-C1-N52S-FEAR
[1]
  Kd: 25 nM
  koff: 0.0027 s⁻¹
  kon: 120000 M⁻¹ s⁻¹
[2]
  binding result: binds

B2: IgG1-B7H4-C1-N52S-FEAR (antibody, V domains shown)
VH: QVQLQQWGAGLLKPSETLSLTCAVYGGSFSGYYWSWIRQPPGKGLEWIGEISHSGSTNYNPSLKSRVTISIDTSKNQFSLKLTSVTAADTAVFYCARGLFNWNFDSWGQGTLVTVSS
VL: DIQMTQSPSSLSASVGDRVTITCRASQGIRNDLGWYQQKPGKAPKRLIYGASSLQSGVPSRFSGSGSGTEFTLTISSLQPEDFATYYCLQHNSYPRTFGQGTTVEIKR
notes: Full length human IgG1 with L234F, L235E, D265A, K409R (FEAR) heavy chain constant region and kappa light chain; bivalent, monospecific; also called IgG1-B7H4-C1-052S-FEAR
[3]
  EC50 (read off the curve): ~0.3 µg/mL
[4]
  binding result: binds

Source: patent publication US20240383982A1 (Genmab, published 2024)
